# Measurements as given in paper doi:10.1101/2025.10.11.681782.
# Legend:
# [1] = biological target: DosR (D54E, activated form; called DosR/wild type in EMSA) D54E (Mycobacterium tuberculosis) (UniProt P9WMF9); assay: EMSA
# [2] = biological target: DosR M194term (helix alpha10 truncated) D54E;del194-217 (Mycobacterium tuberculosis) (UniProt P9WMF9); assay: EMSA
sequence,measurement,setting,value
GGCGGTTGGCAGACAACAGGGTCAATGGTCCCCAAGTGGATCACCGACGGGCGCGGACAAATGGCCCGCGCTTCGGGGACTTCTGTCCCTAGCCCTGGCCACGATGGGCTGGTCGGATCAAAGGCATCCGTTTCCATCGATTAGGAGGCAGGCACGTACGAAGGAAGGAT (double strand) [hspX promoter PCR product],binding,[1],binds
same,binding,[2],binds more weakly
